One may read the Kd as the constant that tells how readily two partners part at equilibrium. High values mean a looser complex, low ones a tighter complex.

Kd data for 2 substances are collected here from paper PMC12173559.

In this assay the target is MERS-CoV receptor binding domain (RBD), biotinylated (MERS-CoV) (UniProt K9N5Q8). Nature of the assay: BLI; […] (10 µg/mL) […] (SA) biosensor for 300 s; analyte in kinetic buffer (PBST, 0.1% BSA) […], association 120 s, dissociation 180 s; […]. A general note: BLI is a label-free optical method that tracks binding on a fibre tip over time.

alpaca DPP4 (receptor) had a Kd of 58.4 nM.
In the case of rhesus monkey DPP4 (receptor) it was 47.8 nM.
